Results as given in doi:10.1101/2023.02.03.526966.

target: recombinant mouse nidogen-2 (ELISA) (mouse) (UniProt O88322); assay: ELISA
Sequence of UniProt O88322 (O88322 31-1403): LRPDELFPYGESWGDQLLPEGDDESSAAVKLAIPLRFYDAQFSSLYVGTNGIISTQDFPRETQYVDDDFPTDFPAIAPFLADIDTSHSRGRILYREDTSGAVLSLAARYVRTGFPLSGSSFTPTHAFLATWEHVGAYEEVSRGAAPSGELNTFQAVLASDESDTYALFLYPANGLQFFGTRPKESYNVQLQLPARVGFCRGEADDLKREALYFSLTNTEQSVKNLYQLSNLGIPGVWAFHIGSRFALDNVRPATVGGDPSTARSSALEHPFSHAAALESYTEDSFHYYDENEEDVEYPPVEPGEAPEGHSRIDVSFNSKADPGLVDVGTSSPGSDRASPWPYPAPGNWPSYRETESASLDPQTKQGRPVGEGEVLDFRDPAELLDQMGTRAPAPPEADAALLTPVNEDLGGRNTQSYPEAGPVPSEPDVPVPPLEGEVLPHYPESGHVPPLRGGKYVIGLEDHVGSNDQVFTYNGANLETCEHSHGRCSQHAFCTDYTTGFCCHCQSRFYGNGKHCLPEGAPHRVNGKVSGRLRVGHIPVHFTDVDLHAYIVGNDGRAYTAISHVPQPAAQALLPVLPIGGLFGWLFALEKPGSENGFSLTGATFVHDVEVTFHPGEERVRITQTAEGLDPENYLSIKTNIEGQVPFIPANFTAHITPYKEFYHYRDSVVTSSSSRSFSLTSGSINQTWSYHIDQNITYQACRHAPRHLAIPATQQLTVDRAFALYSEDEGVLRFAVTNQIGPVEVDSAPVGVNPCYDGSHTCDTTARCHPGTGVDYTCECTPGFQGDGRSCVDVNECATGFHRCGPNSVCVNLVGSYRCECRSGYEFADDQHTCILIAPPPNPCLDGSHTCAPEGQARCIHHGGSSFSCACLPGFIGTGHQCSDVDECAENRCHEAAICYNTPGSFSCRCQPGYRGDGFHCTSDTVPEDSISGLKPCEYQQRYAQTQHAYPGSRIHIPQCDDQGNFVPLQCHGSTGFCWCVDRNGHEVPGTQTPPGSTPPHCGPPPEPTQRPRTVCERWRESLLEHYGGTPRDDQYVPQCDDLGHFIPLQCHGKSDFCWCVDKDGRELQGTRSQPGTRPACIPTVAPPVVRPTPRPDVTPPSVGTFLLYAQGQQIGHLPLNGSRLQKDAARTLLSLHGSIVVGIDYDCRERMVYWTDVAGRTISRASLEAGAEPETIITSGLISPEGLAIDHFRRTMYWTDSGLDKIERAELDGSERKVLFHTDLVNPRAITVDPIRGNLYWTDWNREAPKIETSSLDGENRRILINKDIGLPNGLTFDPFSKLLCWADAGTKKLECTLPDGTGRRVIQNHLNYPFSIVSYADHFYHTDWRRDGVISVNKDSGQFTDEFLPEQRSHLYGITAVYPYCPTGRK

Substance	Kd [µM]
LAR FNIII2-FLAG (purified soluble 2nd FNIII domain of LAR) (domain or fragment)	2
LAR FNIII7-FLAG (purified soluble 7th FNIII domain of LAR) (domain or fragment)	2.5
LAR FNIII4-FLAG (purified soluble 4th FNIII domain of LAR) (domain or fragment)	1.9
LAR FNIII5-FLAG (purified soluble 5th FNIII domain of LAR) (domain or fragment)	1.4
